From publication PMC9045261 come the findings set out here.

The target in the experiment is OXAVL02 (OXA-1089). Briefly: SEC-MALS; active SEC fractions dialyzed against PBS (Na2HPO4 10 mM, KH2PO4 1.8 mM, NaCl 137 mM, KCl 2.7 mM, pH 7.4); 100 uL at 0.5 to 1 mg/mL on Superdex 200 Increase 10/300; UV, MALS and refractive index detectors; monomer-dimer equilibrium. (In general: Size exclusion chromatography separates by hydrodynamic size, large species first.)

A word on the stoichiometry N: it is the number of molecules, sites or subunits per partner or assembly. In the case of OXAVL02 (OXA-1089) (enzyme), the stoichiometry N worked out at 2.
